One may read the Ki as a measure of affinity in units of concentration, obtained from inhibition or displacement. Lower therefore signals tighter binding.

Assay [1] deals with Corynebacterium glutamicum ATCC21851. Kind of assay: Cysteine production by fermentation using corynebacteria with pWST1-cysE plasmids. Type of assay: cell-based. The settings on record: allele on pWST1 plasmid; compared with cysEIV, cysEX, cysEXIV. From the text:
The feedback-resistant cysE alleles, cysEIV, cysEX, cysEXI and cysEXIV (cf. Tab. 2 in Example 1), were cleaved out of their corresponding plasmids using the restriction enzymes BamHI and EcoRI (from Boehringer Mannheim) and each respective 1.15 kb-sized DNA fragment was purified through an agarose gel and isolated. The respective DNA fragment was rendered blunt-ended using the Klenow fragment of E. coli DNA polymerase I (from Boehringer Mannheim). The vector pWST1 was hydrolyzed with the restriction enzyme Smal (from Boehringer Mannheim) and ligated to the blunt-ended DNA fragment using T4 DNA ligase. The vector pWST1 is an E. coli/Corynebacterium shuttle vector and can replicate both in E. coli and in corynebacteria. The corynebacterial replicon of this vector originates from the Corynebacterium glutamicum strain ATCC 19223. The preparation of vector pWST1 is described in U.S. Pat. No. 4,965,197. The ligation mixture was used to transform the mutant JM15, which is auxotrophic for cysteine. The complementing plasmids were designated pWST1-cysEIV, pWST1-cysEX, pWST1-cysEXI and pWST1-cysEXIV in accordance with their inserted cysE alleles.
The pWST1-cysE plasmids were used to transform the Corynebacterium glutamicum ATCC21851. The transformation was carried out by electroporation using the technique described in detail in Liebl, W. et al., 1989, FEMS Microbiol. Letters, 65, 299-304. […]

A further assay addresses serine acetyltransferase. The experiment in a line: Serine acetyltransferase enzyme activity test with and without L-cysteine (inhibitor constant Ki, specific activity). The settings on record: for Ki: inhibitor L-cysteine. Format: biochemical, E. coli. From the text: Any method which enables the activity of the serine acetyltransferase to be determined in the presence of cysteine can be used for determining the cysteine sensitivity of this enzyme. For example, the serine acetyltransferase activity can be determined using the method described by Kredich and Tomkins, J. Biol. Chem. 241: 4955-4965 (1966). In this test, the enzyme test mixture contains the substrate, L-serine, and the cofactor, acetyl-coenzyme A. The reaction is started by adding enzyme and monitored, in a spectro photometer, by observing the decrease in absorption at 232 nm which is elicited by the cleavage of the thioester bond in the acetyl-coenzyme A.
The above-described enzyme test is suitable for determining the cysteine sensitivity of any serine acetyltransferase enzyme, including the enzymes which have a modified carboxyl terminus. Inhibition of the serine acetyltransferase activity is tested in the presence of differing concentrations of L-cysteine in the reaction mixture. The catalytic activity of the different serine acetyltransferase enzymes is determined in the presence and absence of L-cysteine, and the inhibitor constant, Ki, is ascertained from this (Kredich and Tomkins, J. Biol. Chem., 241, 4955-4965 (1966)).
In order to investigate the biochemical basis of the cysteine secretion of the revertants, the activity of the serine acetyltransferase was determined in vitro, and the ability of cysteine to inhibit the enzyme was measured. For the determination, use was made of S30 extracts (cell homogenates centrifuged at 30,000 g and 4° C. for 20 minutes) of the selected revertants, the starting strains and the comparison strain, E. coli W3110 (ATTC 27325).
The biochemical parameters such as enzyme activity and inhibitor constant, Ki, were determined in an analogous manner to that described in Example 1.
The plasmids resulting from this cloning were designated pACYC184/cysE-Del in accordance with the extent of their deletion (cf. FIG. 9 for the plasmid map). Determination of the enzymic activity and the inhibitor constant, Ki, and also the cross-feeding test, were carried out in analogy with the description in Example 1. DNA sequence analysis was used to confirm that the deletions had been correctly introduced.
Determination of the enzymic activity and of the inhibitor constant Ki, and also the cross-feeding test, were carried out in analogy with the description in Example 1.

B1: cysEXI: double mutant Thr167->Ala167, Gly245->Ser245 (protein, UniProt P0A9D4 1-273, looked up, variant T167A G245S)
Serine acetyltransferase: MSCEELEIVWNNIKAEARTLADCEPMLASFYHATLLKHENLGSALSYMLANKLSSPIMPAIAIREVVEEAYAADPEMIASAACDIQAVRTRDPAVDKYSTPLLYLKGFHALQAYRIGHWLWNQGRRALAIFLQNQVSVTFQVDIHPAAKIGRGIMLDHATGIVVGEAAVIENDVSILQSVTLGGTGKSGGDRHPKIREGVMIGAGAKILGNIEVGRGAKIGAGSVVLQPVPPHTTAAGVPARIVSKPDSDKPSMDMDQHFNGINHTFEYGDGI
As for B1, in assay [1], the cysteine yields result is “highest cysteine yields”. Further, the inhibition constant Ki at serine acetyltransferase (Table 1a, 1 mM L-serine, 0.1 mM acetyl-CoA) was 700 µM; at serine acetyltransferase (Table 2, alleles from chemical mutagenesis), 700 µM. The same molecule showed a spec. act. in the assay on serine acetyltransferase (Table 1a, serine acetyltransferase activity) of 0.117 µmol/min/mg.

Source of the values: patent publication US6218168A, “Process for preparing O-acetylserine, L-cysteine and L-cysteine-related products” (Consortium fur elektrochemische Inudstrie GmbH, priority 1995, dated 2001).
